From patent publication CN115073593A (SHANGHAI JUNSHI BIOSCIENCES CO LTD; JUNMENG BIOSCIENCES CO …, dated 2022)
Where a chain is given by its changes, count along the chain named.

B1: JS016-40 (antibody, V domains shown)
VH: EVQLVESGGGLVQPGGSLRLSCAASGFTVGWNYMSWVRQAPGKGLEWVSVIYPGGTTFYADSVKGRFTISRDNSMNTLFLQMNSLRAEDTAVYYCARVLPMYGDYLDYWGQGTLVTVSS
VL: DIVMTQSPSSLSASVGDRVTITCRASQNIERYLNWYQQKPGKAPKLLIYAASSLQSGVPSRFSGSGSGTDFTLTISSLQPEDFATYYCQQSASSTPEYTFGQGTKLEIKR
B2: JS016-77-YTE (antibody, V domains shown)
VH: B1 VH with T28V, G30Q, W31A, T56S
VL: B1 VL with E30L, R31P, A92S, S94A, T95V
B3: JS016-41-YTE (antibody, V domains shown)
VH: B1 VH with T28V, G30Q, W31A, T56S
VL: B1 VL

Target: SARS-CoV-2 omicron突变株假病毒 (SARS-CoV-2 omicron variant)
Assay: cell-based or functional assay

Binder	IC50(ng/ml), pseudovirus neutralisation, luciferase reporter [ng/mL]
B1	24.6
B2	776
B3	17.6
